Data taken from the DeepSol protein solubility set.

Assay: soluble on expression in E. coli; label from the status in PepcDB or PDB records

Row | Sequence | soluble on expression in E. coli
1 | MKILVIGAGPAGLVFASQLKQARPLWAIDIVEKNDEQEVLGWGVVLPGRPGQHPANPLSYLDAPERLNPQFLEDFKLVHHNEPSLMSTGVLLCGVERRGLVHALRDKCRSQGIAIRFESPLLEHGELPLADYDLVVLANGVNHKTAHFTEALVPQVDYGRNKYIWYGTSQLFDQMNLVFRTHGKDIFIAHAYKYSDTMSTFIVECSEETYARARLGEMSEEASAEYVAKVFQAELGGHGLVSQPGLGWRNFMTLSHDRCHDGKLVLLGDALQSGHFSIGHGTTMAVVVAQLLVKALCTEDGVPAALKRFEERALPLVQLFRGHADNSRVWFETVEERMHLSSAEFVQSFDARRKSLPPMPEALAQNLRYALQRLEHHHHHH | soluble
2 | MKIRILGSGTSTGVPEIGCTCAVCTSKDPRDCRLRTSALVYTDDATILLDCGPDFREQMLRVPFGKIDAVLISHEHYDHVGGLDDLRPFCRFGEVPIYAETYTAERLRSRMPYCFVEHSYPGVPNIPLREIEPNRPFLVNHTEVLPLRVMHGKLPILGYRIGKLGYITDMLTMPDESFEQLQGIEVLVMNALRIAPHNTHQSLSEALEAVKRIGAKETWLIHMSHHIGLQADVEKQLPPHVHFAFDGLELECLEHHHHHH | not soluble
3 | MKISIVIVTYNRIPALCELLESISRQTLMPYEIIIVNDAGESVVPVKALYPELPIAVINLEKNSGHVAARNAGVKEASGDCIMLCDDDDFFTPGHIEKMAKEIETADFVHSDAEIVSFEEKNGTRYPVSRKLFAYTADYEDMRVFSTYVPSGSMYRRFLHDEIGYFDADVHNYWDWDFYLRAAKDYRVKRVPCASVIYAFSDAGDNQSADLGAKRKQYLDRLSEKHGLGELPTKNFAVLLEEPEMKRREAKSEMVWDGEPVYSRLHRSLEHHHHHH | not soluble
4 | MKISVITINYNNGEQLEATIQSVVSNVTVLRELLGEKAEYIVIDGGSVDCSVSVLQKYSEYISYWISEKDKGIYHAMNKGISVAQGEYCFFLNSGDTFYEDDTLKKALLFLKEDFVCGNAVLKYAGGINEWSAPEIVNTLFFMQRFSVCHQSLFIRTELLKSHPYNETLMIVADYEQMFYEIAVNHRSYKKIDLTICYYGCDGVSSDHEKADAEKRSVINEFRYLGYIEPDELWNVVSKLKIGTRKYRLLLSLAKCLTSSPKYWVRLEHHHHHH | soluble
5 | MKISVLVPTLGTREKEIRRLLETLEKQSYKDFEIIFVTQDNHEIVKDIIYKYSNLDIKQIEMSVKGLSRARNRGLEQASGEIVVLSDDDCWYPANAFEIVVNAFKKRQCAKIVLSQIFDPEKNIPYKNYTSDEEYVRNKLQLMSKSSIEVAFKKDLVMNKKFDERLGLGSEFVCGEEVDFLLSNYEKNAIFYIPEVTVYHKKKENGSSNKQIIAKGAIYGKNFNIFICVLVLLRDLMLKKENNFKYFFEGYNEYFKRTN | not soluble
6 | MKIVAITSCPNGIAHTYMAQEKLEQVAKEMGVDIKVETQGGVGAENVLTTQDIEEADGVIIAADKQVDLSRFVGKRLINENVREGIHNPRGLIQRIINQDAPIYQSETN | not soluble
7 | MKIVSKSSPLPLHYQLKMILQEMIENEELLPGDTIPTERELCEIQKISRMTVNKAILSLVSEGILYREQGKGTFVAKKKEKQQLTKLKSFTEEMREKGLNISTKILSFEIKTATKHISTLLELPHKKMKVIEIIRLRLTDNDPSAIETVVLPLYLFSDMTKEVIDGKSLYNTFREKYGYEPTKAKQTIEPIMLTDYEAKFLNQVGNSLALLFRRLTYRKDGVPIEYTKSIYRSEKYKYEVILT | not soluble
8 | MKKAALMLITFLGLTACSQGVTSMPDRTQTPCGNKPNCVSTQDQREEHHLEPFTLTESATLDAIEQAALQLSGAKTAEKDGNYLRIECTSKIMRFVDDLELKIDGNTLIVRSESRVGYSDFGVNRKRAEQLRTELSKAELIKLEHHHHHH | not soluble
9 | MKKDAKDHARNRLMDCYIKKAPTYAAIVKIEHFENDDASSKDFEPFVVYSLNKKKRWEINEESLNSSTEGTSTKSVIIDREIPDLQDSWWCLQNDLLNNCIYHSNPVNSAQMATAKKYEKVIGYHIVRIPVNHKKVFDKKCTRDLSYRYRDSIGNVPRDLTVLQYEMKEVEHGKEDFAKENISPEVNNPSKTIGFYNLEEHFVARKQQKSKGWLTVN | not soluble
10 | MKKIFMMVHELDVNKGGMTSSMFNRSKEFYDADIPADIVTFDYKGNYDEIIKALKKQGKMDRRTKMYNVFEYFKQISNNKHFKSNKLLYKHISERLKNTIEIEESKGISRYFDITTGTYIAYIRKSKSEKVIDFFKDNKRIERFSFIDNKVHMKETFNVDNKVCYQVFYDEKGYPYISRNINANNGAVGKTYVLVNKKEFKNNLALCVYYLEKLIKDSKDSIMICDGPGSFPKMFNTNHKNAQKYGVIHVNHHENFDDTGAFKKSEKYIIENANKINGVIVLTEAQRLDILNQFDVENIFTISNFVKIHNAPKHFQTEKIVGHISRMVPTKRIDLLIEVAELVVKKDNAVKFHIYGEGSVKDKIAKMIEDKNLERNVFLKGYTTTPQKCLEDFKLVVSTSQYEGQGLSMIEAMISKRPVVAFDIKYGPSDFIEDNKNGYLIENHNINDMADKILQLVNNDVLAAEFGSKARENIIEKYSTESILEKWLNLFNS | not soluble
11 | MKKIGFIGLGNMGLPMSKNLVKSGYTVYGVDLNKEAEASFEKEGGIIGLSISKLAETCDVVFTSLPSPRAVEAVYFGAEGLFENGHSNVVFIDTSTVSPQLNKQLEEAAKEKKVDFLAAPVSGGVIGAENRTLTFMVGGSKDVYEKTESIMGVLGANIFHVSEQIDSGTTVKLINNLLIGFYTAGVSEALTLAKKNNMDLDKMFDILNVSYGQSRIYERNYKSFIAPENYEPGFTVNLLKKDLGFAVDLAKESELHLPVSEMLLNVYDEASQAGYGENDMAALYKKVSEQLISNQK | soluble
12 | MKKIKTISTLVAGLGIAFLGHTTHADAAENNNQQQSTHNYSTTEVSFSNSGNLYTSGQCTWYVYDKTGGKIGSTWGNANSWATAAQAAGFTVNNTPEEGAIMQSSEGAFGHVAFVESVNNDGSITVSEMNYDGGPFAISTRTISASEASSYNYIHLNLEHHHHHH | not soluble
13 | MKKIQRTQTRDHITQMLRYEILSGNIKAGEELAQESIAEQLGLSRMPVREALQSLEQEGFLIRLPNRHMQVAHLEADRVSHIFRVIAAMAAEMFSLIPSEVGDALLIRAQALAVAEDKSCELECHAMLISYVNNRYLEKVYQQFLDGYVSYVILHLKKDNQESAQLFAELADVIRQGRRDEIGQVMQRYFLSLAEIMRQHMKDWESAEA | not soluble
14 | MKKLAFAITAASGAAAVLSHHDAEASTQHKVQSGESLWTIAQQYNTSVESIKQNNNLSNNMVFPGQVINVGGSASQNTSSNTSSSSASSHTVVAGESLNIIANKYGVSVDALMQANHLNGYLIMPNQILTIPNGGSGSGSGGTATQTSGNYTSPSFNHQNLYTEGQCTWYVFDKRSQAGKPISTYWSDAKYWASNAANDGYQVDNTPSVGAIMQSTPGPYGHVAYVERINGDGSILISEMNYANGPYNMNYRTIPASEVSSYAFIHLEHHHHHH | not soluble
15 | MKKNFFSDLPEETIVNTLSFLKANTLARIAQTCQFFNRLANDKHLELHQLRQQHIKRELWGNLMVAARSNNLEEVKKILKKGIDPTQTNSYHLNRTPLLAAIEGKAYQTANYLWRKYTFDPNFKDNYGDSPISLLKKQLANPAFKDKEKKQIRALIRGMQEEKIAQSKCLVC | not soluble
16 | MKKRLTESQFQEAIQGLEVGQQTIEIARGVLVDGKPQATFATSLGLTRGAVSQAVHRVWAAFEDKNLPEGYARVTAVLPEHQAYIVRKWEADAKKKQETKR | soluble
17 | MKKSRYTETQIVKILKEVEAGRLVKEICREYGISDATYYNWKAKYGGMESSDIKRLKDLEEENRRLKQMYAELSLDHKILKDIVEKKLLEHHHHHH | not soluble
18 | MKKSSILILIIICLVGCKKGSNETTITGEIKGLGTDTLYLYGMDELYDRIDTIYVENDKFSYTTSVDTITSAYLLLKNRIEYPVFLDKGNKIKIKGDTINLNFLTISGNIYNEEFTDFQKALEDPADPSEKAGEETVDKRITVEKANTAEEMAEEFILQHHSSYVSLYLLDKYFVQKETPDFSKIKKLVEVMTGVLQDKPYIERLNETITQAEKSEIGKYAPFFSLPNAKGEKITRSSDAFKQKSLLINFWASWNDSISQKQSNSELREIYKKYKKNKYIGMLGISLDVDKQQWKDAIKRDTLDWEQVCDFGGLNSEVAKQYSIYKIPANILLSSDGKILAKNLRGEELKKKIENIVEEATEKEKKNKQKK | not soluble
19 | MKKTKFSSYEEYRNYFKRLIDLERRAQTELHLKEIKTLSGKEREKRGRAILNLRAKFLGRGLGGVYLVRYSRPQGLPKTEISTGDIVLVSKGKPTVKEVQGTVAEKTNYYLVVAFRDKPPPYALGKDVRIDLFSNEITFKRMEEALKNFKEHPLRDFILGKKVLEHHHHHH | soluble
20 | MKKVIFKPLKSYPVKMAMIALTLLAASPITHAEESKMKNATITVTATGENQATPDMAIINLAVVTQDKTAQKALADNNKSMNDIINAFKNNGIQANDLQTSGLSIYQSNPNKDHEKKNNGIVYHVSNSLTVRIRDLSNAGKIFDQAMALGVNSVHGITFTNANTKPFYQEARKKAIAEAIEKAKTIAEAADLKLGKIIKINENDDNYYSRPHLMSKAVNANYTDTTFSSGELNYSVSVTIVFAID | not soluble
21 | MKKVKLIGTLDYGKYRYPKNHPLKIPRVSLLLRFKDAMNLIDEKELIKSRPATKEELLLFHTEDYINTLMEAERSQSVPKGAREKYNIGGYENPVSYAMFTGSSLATGSTVQAIEEFLKGNVAFNPAGGMHHAFKSRANGFCYINNPAVGIEYLRKKGFKRILYIDLDAHHCDGVQEAFYDTDQVFVLSLHQSPEYAFPFEKGFLEEIGEGKGKGYNLNIPLPKGLNDNEFLFALEKSLEIVKEVFEPEVYLLQLGTDPLLEDYLSKFNLSNVAFLKAFNIVREVFGEGVYLGGGGYHPYALARAWTLIWCELSGREVPEKLNNKAKELLKSIDFEEFDDEVDRSYMLETLKDPWRGGEVRKEVKDTLEKAKASS | soluble
22 | MKKYIALAWVCLALTDVMAQKQKVVEKVVDEDYYPVEGAVVTLKRTNQNATTDKDGVFILEEVPVYFDSLQVKKGKRSGYIDLPMRIQMRTQVMQRFSWSVKAGIGAGKFMQGPESKLKDGFSIYGGVGADIRMSKHWAFQPSLLLVSRKMKGYDFYGYYAENNGDGSSSASYEQVSGTYNPFYLEIPLLFALKYRVGNDMNLVFSFGPYIDLGLSGDEKREYIKHYYDTMEGNKTESVTNSRSLFGKRFTGGFAYGIGVEYGRFLIGGTGRVGCTSWNHSEGFIDVAFEIGYRF | not soluble
23 | MKLAIIIPVYNAEETIKRAILSVDTSVPYEIICINDGSTDQTQHVLTELQQKHPHIKVIHQSNQGAARSRNVGLEAMSEDVDAFLFLDADDEFLPSRIDLMVNAFNKNKETDVVIGQMARDVNGEWQVISTHQSMVKDAIVTLDRKPDILQSIGPGAKLFSSKYAGLRFDEDVVFCEEHTFIVKAFSKARDIQLIPNIVYGYNEREGSVTAQRADTFLPYMSDALKVRQRVMELLLLLDEKIYYSYRMDNLIVSYLIQAHLKKNNKITQSLLESVIEYMKAMQHTHYSGEAMFRIVRAVEQSATHWTKPLYLQWKKALSEVGIGRPGLIRFKLQVIPKKISFSGKESLKRIFKK | not soluble
24 | MKLATKKNGTRDGLLMVVSKDLTRCVPATEVFHPRNLAPTMQVALDNWEAVAPQLEEIYTALNNGTVAGFEEFEAHYCESPLPRAYQWADGSAYVNHVELVRKARGAEMPESFWTDPLMYQGGSDAFIGPCDNIEFASDEWGIDFEGEVAVVTGDVPMGASIAEAQESIRLIMLVNDVSLRGLIPAELAKGFGFFQSKPSSAFSPVAVTPDELGDEWYENKVHLPLVSTYNHKPFGRPNAGVDMTFDFADLIVHATKTRPLSAGAIIGSGTVSNKQGTDHGTSIEEGGVGYSCIAEVRMIETIRDGKPTTNFMSFGDSIKLEMFDVEGNTIFGAIDQQVSQYLKH | not soluble
